Laboratory results reported in paper PMC3584105, “Acute BDNF Treatment Upregulates GluR1-SAP97 and GluR2-GRIP1 Interactions: Implications for Sustained AMPA Receptor Expression” (PLoS ONE, 2013).

Target: T1, GluR2 (wild type, full length, expressed in HEKTrkB cells) (UniProt P19491 22-883)
T1 construct: AMPA receptor subunit GluR2, wild type cDNA in a CMV expression vector; the deletion mutants of the same cDNA end at residue 862; also called WT GluR2; full length GluR2; source: HEKTrkB cells, transiently co-transfected (cDNA downstream from the CMV promoter), in lysate
T1 sequence (P19491 22-883): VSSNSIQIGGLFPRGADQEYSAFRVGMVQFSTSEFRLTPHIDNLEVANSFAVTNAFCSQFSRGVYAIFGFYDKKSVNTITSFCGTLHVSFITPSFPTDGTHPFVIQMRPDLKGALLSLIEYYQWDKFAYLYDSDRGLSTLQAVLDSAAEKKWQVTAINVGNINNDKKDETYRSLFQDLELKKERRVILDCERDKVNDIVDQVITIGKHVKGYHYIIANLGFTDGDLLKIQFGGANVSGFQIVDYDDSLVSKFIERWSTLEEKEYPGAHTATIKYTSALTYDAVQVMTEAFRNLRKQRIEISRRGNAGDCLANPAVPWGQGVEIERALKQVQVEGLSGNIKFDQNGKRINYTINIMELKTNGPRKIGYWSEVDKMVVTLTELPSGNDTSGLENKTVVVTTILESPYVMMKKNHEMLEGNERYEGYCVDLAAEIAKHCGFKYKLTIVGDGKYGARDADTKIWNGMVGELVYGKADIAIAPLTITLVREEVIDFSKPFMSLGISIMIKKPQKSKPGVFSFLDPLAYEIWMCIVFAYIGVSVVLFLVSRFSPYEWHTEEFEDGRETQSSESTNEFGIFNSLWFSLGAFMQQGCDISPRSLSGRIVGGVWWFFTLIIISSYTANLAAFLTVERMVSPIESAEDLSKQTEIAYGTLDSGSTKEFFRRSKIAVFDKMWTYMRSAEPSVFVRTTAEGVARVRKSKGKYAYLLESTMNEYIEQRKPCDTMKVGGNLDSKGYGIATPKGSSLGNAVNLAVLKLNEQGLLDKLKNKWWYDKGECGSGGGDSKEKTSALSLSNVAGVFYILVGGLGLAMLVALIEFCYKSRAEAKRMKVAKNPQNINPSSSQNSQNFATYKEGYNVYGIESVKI
Assay: co-IP; lysate of HEKTrkB cells co-transfected with GluR2 and GRIP1, treated with BDNF (1 h, 50 ng/mL) or not; precipitation with anti-N-terminal GluR2 and blot with anti-GRIP1, or precipitation with anti-GRIP1 and blot with anti-C-terminal GluR2/3
Settings: partners not purified

fold change of the co-precipitate, 1 h BDNF against untreated cells: ~6 fold
B1: GRIP1 (expressed in HEKTrkB cells) (natural protein, UniProt P97879 1-1112, looked up)
chain: MIAVSFKCRCQILRRLTKDESPYTKSASQTKPPDGALAVRRQSIPEEFKGSTVVELMKKEGTTLGLTVSGGIDKDGKPRVSNLRQGGIAARSDQLDVGDYIKAVNGINLAKFRHDEIISLLKNVGERVVLEVEYELPPVSIQGSSVMFRTVEVTLHKEGNTFGFVIRGGAHDDRNKSRPVVITCVRPGGPADREGTIKPGDRLLSVDGIRLLGTTHAEAMSILKQCGQEATLLIEYDVSVMDSVATASGPLLVEVAKTPGASLGVALTTSVCCNKQVIVIDKIKSASIADRCGALHVGDHILSIDGTSMEYCTLAEATQFLANTTDQVKLEILPHHQTRLALKGPDHVKIQRSDRQLPWDPWASSQCSVHTNHHHNPHHPDHCRVPALGFPKALTPNSPPAMVSSSSPTSMSAYSLSSLNMGTLPRSLYSTSPRGTMMRRRLKKKDFKSSLSLASSTVGLAGQVVHTETTEVVLTADPVTGFGIQLQGSVFATETLSSPPLISYIEADSPAERCGVLQIGDRVMAINGIPTEDSTFEEANQLLRDSSITSKVTLEIEFDVAESVIPSSGTFHVKLPKKHSVELGITISSPSSRKPGDPLVISDIKKGSVAHRTGTLELGDKLLAIDNIRLDSCSMEDAVQILQQCEDLVKLKIRKDEDNSDEQESSGAIIYTVELKRYGGPLGITISGTEEPFDPIIISSLTKGGLAERTGAIHIGDRILAINSSSLKGKPLSEAIHLLQMAGETVTLKIKKQTDAQPASSPKKLPIPSHSSDLGDGEEDPSPIQRPGKLSDVYPSTVPSVDSAVDSWDGSGIDARYGSQGTTFQTSGYNFNTYDWRSPKKRASLSPVPKPRSQTYPDVGLSNEDWDRSTASGFAGASDSADAEQEENFWSQALEDLETCGQSGILRELEATIMSGSTMSLNHEAPTARSQLGRQASFQERSNSRPHYSQTTRSNTLPSDVGRKSVTLRKMKQEIKEIMSPTPVELHKVTLYKDSGMEDFGFSVADGLLEKGVYVKNIRPAGPGDLGGLKPYDRLLQVNHVRTRDFDCCLVVPLIAESGNKLDLVISRNPLASQKSIEQPALPSDWSEQNSAFFQQPSHGGNLETREPTNTL
notes: source: HEKTrkB cells, transiently co-transfected (cDNA downstream from the CMV promoter), in lysate
